12 substances from patent US20250092146A1, “ANTI-CCR8 ANTIBODIES, CONJUGATES, AND USES THEREOF” (Abilita Bio, Inc., priority 2023, published 2025) can be followed below.

Where no end group is shown, it is not given here.

The target in this test is T1, hCCR8 (Homo sapiens, UniProt P51685).
T1 construct: expressed in transfected cells
Description: Flow cytometry binding of VHH-Fc fusion antibodies to hCCR8 on stably transfected HEK293 cells. The conditions noted are these: Table 12; for EC50: VHH-2 CDR alanine mutants as human Fc fusions, HEK293 hCCR8; for % Bmax: normalized to wild type VHH-2-Fc. As for the experimental part:
VHH-Fc fusion antibodies were evaluated for their ability to bind to hCCR8 on stably transfected HEK293 cells by means of flow cytometry. Cells were incubated with different concentrations of the bivalent VHH-Fc fusions for 60 minutes at 4° C., followed by two washes with FACS buffer, followed by 30 minutes incubation at 4° C. with the Zenon R-Phycoerythrin Anti-human IgG (ThermoFisher Scientific, #Z-25455), and two additional washing steps. Data were plotted and fit using GraphPad Prism software. EC50 and Bmax values individual antibodies were calculated from the resulting dose-response curves. Bivalent VHH-Fc fusions (Seq ID NOs: 31, 33, and 87-103) of 19 different VHH domains (SEQ ID NOs: 27, 28, and 70-86) were tested for cell binding and results are shown in Table 7. […]
VHH-Fc fusion DNA constructs were then generated comprising encoding humanized VHH sequences (SEQ ID NOs: 106-111) fused in frame to the human IgG1 (SEQ ID NO: 34) directly to the short hinge sequence in the pFuse expression vector, and were expressed, purified and analyzed for binding to HEK293 cells expressing human CCR8 as in Example 5. Binding curves for VHH-Fc antibodies comprised of parental VHH-1 and the humanized VHH derivatives VHH-1.2-Fc and VHH-1.3-Fc are shown in FIG. 9A. Binding curves for VHH-Fc antibodies comprised of parental VHH-2 and the humanized VHH derivatives VHH-2-Fc, VHH-2.2-Fc and VHH-2.3-Fc, are shown in FIG. 9B. Cell binding EC50 values, normalized Bmax (relative to respective parental clone) data and humanizing mutations are shown in Table 10 below.
Approaches such as in vitro affinity maturation and rational mutagenesis can be performed to regain binding affinity and/or stability lost through humanization. In vitro affinity maturation generally involves building and amino acid substitution library where amino acid positions are varied across the CDRs and/or framework at a defined set of positions using sets of amino acids chosen to introduce new chemical diversity. The paratope residues within the CDR regions are of course key to antigen binding and care must be taken not to disrupt important structures while attempting to evolve improve antibody behavior. One approach to identify positions that are important to the maintenance of binding properties is to perform paratope mapping using single scanning alanine substitutions across antibody CDR regions. In this approach, residues that are critical to the maintenance of antibody binding to the antigen can be identified and at the same time permissive sites can be identified where it may be possible to make substitutions of other amino acids desirable for subsequent affinity maturation library construction. Site directed mutagenesis was used to make single alanine substitutions at each residue in the CDRs of VHH-1 (SEQ ID NO: 27) and VHH-2 (SEQ ID NO: 28). Changes in VHH-1 CDR amino acids to alanine are indicated in Table 11 (SEQ ID NOs: 112-137) and for VHH-2 CDRs (SEQ ID NO: 138-162) in Table 12. Mutation positions and residue changes to alanine with respect to the in the parental VHH sequences are referenced by their IMGT position. VHH domains containing the indicated modified CDR-1, CDR-2 or CDR-3 domains were used to construct Fc fusions by direct grafting to the short hinge of the human Fc domain (SEQ ID NO: 34). VHH-Fc constructs were expressed, purified and analyzed for binding to HEK293 cells expressing hCCR8 and the results are reported in Table 11 and Table 12. EC50 values are reported for each Fc fusion antibody containing a modified CDR, along with its respective Bmax value normalized to the to the matched wild type VHH-1-Fc or VHH-2-Fc fusion antibody.
Background: Flow cytometry measures light scatter and fluorescence of single cells or particles in a stream.

T1 sequence (P51685 whole entry): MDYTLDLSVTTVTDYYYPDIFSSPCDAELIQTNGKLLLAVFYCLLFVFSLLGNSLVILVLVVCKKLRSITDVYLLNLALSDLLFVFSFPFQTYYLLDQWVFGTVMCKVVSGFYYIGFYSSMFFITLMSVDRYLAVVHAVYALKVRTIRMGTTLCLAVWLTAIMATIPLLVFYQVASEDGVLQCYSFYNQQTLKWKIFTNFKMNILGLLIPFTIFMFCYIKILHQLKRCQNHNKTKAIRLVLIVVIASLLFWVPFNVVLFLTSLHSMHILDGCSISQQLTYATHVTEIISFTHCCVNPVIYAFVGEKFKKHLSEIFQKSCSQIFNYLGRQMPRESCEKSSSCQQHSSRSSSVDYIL

The term EC50 denotes the midpoint of the concentration-response curve. A low value points to a more potent agent. Regarding “VHH-2 S28A: VHH-2 alanine mutant, CDR1 GATSTINR, fused to human IgG1 Fc (also: CDR1 of VHH-2 in VHH fused to human IgG1 Fc)”, the response was half-maximal at 1.61 nM (EC50) and the “% Bmax” value was found to be 68%.
“VHH-2 S30A: VHH-2 alanine mutant, CDR1 GSTATINR, fused to human IgG1 Fc (also: CDR1 of VHH-2 in VHH fused to human IgG1 Fc)”: the EC50 worked out at 1.62 nM and the “% Bmax” value amounted to 66%.
The matching figures for “VHH-2 S57A: VHH-2 alanine mutant, CDR2 TASRTSP, fused to human IgG1 Fc (also: CDR2 of VHH-2 in VHH fused to human IgG1 Fc)”: 1.03 nM and 69%.
In the case of “VHH-2 S58A: VHH-2 alanine mutant, CDR2 TSARTSP, fused to human IgG1 Fc (also: CDR2 of VHH-2 in VHH fused to human IgG1 Fc)”, it took 1.02 nM to reach a half-maximal effect (EC50) and the “% Bmax” value turned out to be 65%.
The matching figures for “VHH-2 S63A: VHH-2 alanine mutant, CDR2 TSSRTAP, fused to human IgG1 Fc (also: CDR2 of VHH-2 in VHH fused to human IgG1 Fc)”: 1.08 nM and 70%.
Regarding “VHH-2 S113A: VHH-2 alanine mutant, CDR3 QARMAMGSAQVVY, fused to human IgG1 Fc (also: CDR3 of VHH-2 in VHH fused to human IgG1 Fc)”, the concentration giving a half-maximal response (EC50) is 0.9 nM and the “% Bmax” value stood at 48%.
The matching figures for “VHH-2 T29A: VHH-2 alanine mutant, CDR1 GSASTINR, fused to human IgG1 Fc (also: CDR1 of VHH-2 in VHH fused to human IgG1 Fc)”: 1.43 nM and 65%.
In the case of “VHH-2 T35A: VHH-2 alanine mutant, CDR1 GSTSAINR, fused to human IgG1 Fc (also: CDR1 of VHH-2 in VHH fused to human IgG1 Fc)”, the EC50 was determined as 0.87 nM and the “% Bmax” value came out at 65%.
Take “VHH-2 T59A: VHH-2 alanine mutant, CDR2 TSSRASP, fused to human IgG1 Fc”: the midpoint of the response, the EC50, lay at 1.48 nM and the “% Bmax” value worked out at 74%.
Taken in the same sequence, the figures for “VHH-2 V115A: VHH-2 alanine mutant, CDR3 QARMAMGSSQAVY, fused to human IgG1 Fc (also: CDR3 of VHH-2 in VHH fused to human IgG1 Fc)” were 1.34 nM and 11%.
The matching figures for “VHH-2 V116A: VHH-2 alanine mutant, CDR3 QARMAMGSSQVAY, fused to human IgG1 Fc (also: CDR3 of VHH-2 in VHH fused to human IgG1 Fc)”: 0.83 nM and 72%.
Turning to “VHH-2 Y117A: VHH-2 alanine mutant, CDR3 QARMAMGSSQVVA, fused to human IgG1 Fc (also: CDR3 of VHH-2 in VHH fused to human IgG1 Fc)”, the EC50 amounted to 0.86 nM and the “% Bmax” value amounted to 76%.
